Results from patent publication US20240092891A1 (SANYOU BIOPHARMACEUTICALS, published 2024).

Key:
human CLDN18.1 [1] = molecular target: T1, human CLDN18.1 (human, UniProt P56856 1-261); experiment: flow cytometry with phage supernatant, anti-M13 antibody, on human CLDN18.1-HEK293 cells
T1 construct: Overexpressed on HEK293 cells; also called human CLDN18.1-HEK293
Source text: Firstly, 1×10⁵ human CLDN18.2-HEK293T and human CLDN18.1-HEK293 cells were taken, respectively and centrifuged at a low speed of 500 g, and the supernatant was removed.

human CLDN18.2 [2] = molecular target: T2, human CLDN18.2 (human); experiment: flow cytometry on human CLDN18.2-HEK293T cells
T2 construct: also called CLD18A2; huCLDN18.2

human CLDN18.2 [3] = molecular target: T2, human CLDN18.2; experiment: cell-based or functional assay
human CLDN18.1 [4] = molecular target: T1, human CLDN18.1; experiment: flow cytometry, binding intensity on human CLDN18.1-HEK293 cells at different concentrations
Procedure: Therefore, antibodies (including a high concentration of 100 μg/mL) at different concentrations were used to be incubated with human CLDN18.1-HEK293 in vitro in this example. The method was as described in section 1.3.1, wherein antibodies at different concentrations were incubated with target cells human CLDN18.1-HEK293 at 4° C. for 1 h. Next, the resulting cultures were rinsed three times with the above-mentioned FACS buffer. 0.5 μg (0.5 mg/ml) of PE-labeled goat anti-human IgG Fc antibody (Abcam, ab98596) was added, and the resulting mixture was incubated at 4° C. for 1 h, and then rinsed three times with the FACS buffer.

T1 sequence (P56856 whole entry): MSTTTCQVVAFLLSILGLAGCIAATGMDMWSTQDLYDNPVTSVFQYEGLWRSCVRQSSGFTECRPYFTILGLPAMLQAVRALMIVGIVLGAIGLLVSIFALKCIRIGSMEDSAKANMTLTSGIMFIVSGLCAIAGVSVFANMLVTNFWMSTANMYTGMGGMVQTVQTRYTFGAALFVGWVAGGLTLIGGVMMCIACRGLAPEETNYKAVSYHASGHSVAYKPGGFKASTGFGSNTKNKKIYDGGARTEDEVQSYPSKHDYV

B1: clone NA7-S, VHH displayed on phage (VHH)
VHH: EVQVQESGGGLVQPGGSLRLSCAASGSFFRIVAMGWYRQAPGSQRELVATITRGGSTYYADSMKGRSTISRDNAKNTVYLQMNSLKPEDTAVYYCNVRVEVPFMQPNDYWGHGTQVTVSS
notes: also called NA7-S (phage supernatant); candidate nanobody NA7-S
- binding result (human CLDN18.1 [1]): no binding

B2: humanized antibody NA7-S-H2 (Fc fusion)
chain: EVQLVESGGGLVQPGGSLRLSCAASGSFFRIVAMGWYRQAPGKGRELVATITRGGSTYYADSMKGRSTISRDNAKNTVYLQMNSLKPEDTAVYYCNVRVEVPFMQPNDYWGQGTLVTVSS
notes: not shown: Fc part implied (detected with anti-human IgG Fc; parent molecule in CDC/ADCC)
- EC50 (human CLDN18.2 [2]): 0.482 µg/mL
- binding intensity (MFI) at the highest concentration (human CLDN18.2 [2]): 184000 MFI

B3: IMAB362 antibody (antibody, V domains shown)
VH: QVQLQQPGAELVRPGASVKLSCKASGYTFTSYWINWVKQRPGQGLEWIGNIYPSDSYTNYNQKFKDKATLTVDKSSSTAYMQLSSPTSEDSAVYYCTRSWRGNSFDYWGQGTTLTVSS
VL: DIVMTQSPSSLTVTAGEKVTMSCKSSQSLLNSGNQKNYLTWYQQKPGQPPKLLIYWASTRESGVPDRFTGSGSGTDFTLTISSVQAEDLAVYYCQNDYSYPFTFGSGTKLEIKR
- EC50 of ADCC cell killing effect (LDH release, human PBMC) on human CLDN18.2-HEK293T cells, run with NA7-S (human CLDN18.2 [3]): 0.0862 nM
- EC50 of ADCC cell killing effect (LDH release, human PBMC) on human CLDN18.2-HEK293T cells, run with NA8-S (human CLDN18.2 [3]): 0.0636 nM
- EC50 of CDC cell killing effect (MTS) on human CLDN18.2-HEK293T cells, run with NA4-S (human CLDN18.2 [3]): 0.613 nM
- EC50 of CDC cell killing effect (MTS) on human CLDN18.2-HEK293T cells, run with NA7-S (human CLDN18.2 [3]): 0.628 nM
- EC50 of CDC cell killing effect (MTS) on human CLDN18.2-HEK293T cells, run with NA8-S (human CLDN18.2 [3]): 1.86 nM
- EC50 of CDC cell killing effect (MTS) on human CLDN18.2-KATOIII tumor cells, run with NA7-S (human CLDN18.2 [3]): 69.8 nM
- EC50 of CDC cell killing effect (MTS) on human CLDN18.2-KATOIII tumor cells, run with NA8-S (human CLDN18.2 [3]): 1860 nM
- IC50 of Fab-ZAP cell killing (endocytosis, MTS) on CLDN18.2-HEK293T cells, run with NA7-S (human CLDN18.2 [3]): 0.128 nM
- IC50 of Fab-ZAP cell killing (endocytosis, MTS) on CLDN18.2-HEK293T cells, run with NA8-S (human CLDN18.2 [3]): 0.136 nM

B4: humanized antibody NA4-S-H7 (Fc fusion)
chain: EVQLVESGGGLVQPGGSLRLSCAASGSIFSINVMGWYRQAPGKQRELVAGISTGGTTRYADSVKGRFTISRDNAKNTLYLQMNSLRAEDTAVYYCNADLATATSWPVRYLEVWGQGTLVTVSS
notes: as for B2
- binding result (human CLDN18.1 [4]): no binding (tested: 100 µg/mL)
- EC50 (human CLDN18.2 [2]): 0.877 µg/mL
- binding intensity (MFI) at the highest concentration (human CLDN18.2 [2]): 128000 MFI

B5: clone NA4-S, VHH displayed on phage (VHH)
VHH: EVQVVESGGGLVQPGGSLRLSCAASGSIFSINVMGWYRQAPGKQRELVAGISTGGTTRYADSAKGRFTISRDNAKNTVYLQMNSLKPEDTAVYYCNADLATATSWPVRYLEVWGQGTLVTVSA
notes: also called NA4-S (phage supernatant); candidate nanobody NA4-S
- binding result (human CLDN18.1 [1]): no binding
